From paper PMC6007975
“And” between values parts separate entries of the source, which are not always exact repeats. Equal values may be shown once.

Biological target: N-terminal fragment of mouse GSDMA3 (GSDMA3-NT) (mouse) (UniProt Q5Y4Y6)
Assay: cryo-EM structure

Substance: N-terminal fragment of mouse GSDMA3 (GSDMA3-NT) (from UniProt Q5Y4Y6 1-262) (domain or fragment)
- stoichiometry N: 26 and 28
